From patent publication US20150297742A1 come the findings set out here.

In assay [1] the target is epidermal growth factor receptor (EGFR) (human) (UniProt P00533). The assay is described as follows: 125I-labelled conjugate on A431 cells, against unmodified matuzumab.
For assay [2] the target is unchanged. The assay is described as follows: 125I-labelled conjugate on EGFR-positive A431 cells, 37 C, gamma counting (membrane bound plus internalized).

In assay [1], “mAb-dMTS (matuzumab conjugated to dendritic tetravalent MTS) (antibody)” came in with a fold of the binding percentage of the unmodified mAb of 3 fold.
“mAb-dPenetratin (matuzumab conjugated to dendritic tetravalent penetratin) (antibody)” had a fold of the binding percentage of the unmodified mAb in assay [1] of 3 fold. Moreover, in assay [2], the % of the applied dose bound (% of applied dose per 10^6 cells) amounted to 68.
Take “mAb-dR9 (matuzumab conjugated to dendritic tetravalent R9) (antibody)”: in assay [1], the fold of the binding percentage of the unmodified mAb is 4.2 fold. Besides, the % of the applied dose bound (% of applied dose per 10^6 cells) in assay [2] is 92.
In the case of “mAb-dSynB1 (matuzumab conjugated to dendritic tetravalent SynB1) (antibody)”, the % of the applied dose bound (% of applied dose per 10^6 cells) in assay [2] came to 47.
Take “mAb-dTAT (matuzumab conjugated to dendritic tetravalent TAT (47-60)) (antibody)”: the fold of the binding percentage of the unmodified mAb in assay [1] amounted to 3 fold.
